Experimental data taken from the supplement of paper PMC9732359.
± gives the uncertainty stated by the source.

Experiment: protein stability index of a GFP-peptide fusion (yeast GPS) (PSI 1-4); higher = more stable; sorted into four equal gates, so the index is relative within each strain
Outline: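 Tiled 17-residue peptides from yeast proteins were fused downstream of GFP on a plasmid that also expresses Cherry, and the pooled library was carried in yeast. Mid-log cultures grown in leucine-free medium were sorted into four equal gates by GFP/Cherry fluorescence ratio. Plasmids from each gate were PCR-amplified and Illumina-sequenced, and reads were assigned to strains by barcodes. Each peptide's protein stability index is the sum, over gates, of the gate's read frequency multiplied by its gate number.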

Row | Sequence | protein stability index (doa10∆) | protein stability index (pdr5∆) | protein stability index (san1∆) | protein stability index (ubr1∆)
1 | QSSRVVSLSQLLFIVGQ [YCS4] | 1.75 ± 0.063 | 1.33 ± 0.048 | 1.83 ± 0.11 | 1.4 ± 0.054
2 | IFLKRKDFTNKNLIQLI [SRB8] | 1.31 ± 0.053 | 1.43 ± 0.041 | 1.28 ± 0.086 | 1.4 ± 0.041
3 | NGNKDSSFNFNKNLPFV [SWI1] | 3.21 ± 0.058 | 3.38 ± 0.068 | 3.28 ± 0.051 | 3.31 ± 0.043
4 | FKHISVKDFTSLGFNEV [RPO21] | 3.08 ± 0.21 | 2.38 ± 0.12 | 2 ± 0.14 | 2.25 ± 0.044
5 | KKDRATGDADEPELRVL [RPO21] | 3.53 ± 0.11 | 3.48 ± 0.074 | 3.39 ± 0.06 | 3.43 ± 0.046
6 | IWLLSYIQYLGHLPEVS [ECM29] | 1.62 ± 0.071 | 1.9 ± 0.06 | 2.21 ± 0.063 | 1.92 ± 0.057
7 | LEHDVEYRPFSKKVLEC [DIS3] | 3.4 ± 0.18 | 3.6 ± 0.1 | 3.48 ± 0.07 | 3.37 ± 0.073
8 | YRCFAQLELRQLNASIS [RRI2] | 3.06 ± 0.2 | 3.24 ± 0.2 | 3.12 ± 0.16 | 3.39 ± 0.17
9 | KAKTTKKVVLRLECVKC [RPL42A] | 1.64 ± 0.22 | 1.52 ± 0.17 |  | 1.81 ± 0.065
10 | PHTPVTRKGYIPSSKYA [YLR018C/POM34] | 3.15 ± 0.065 | 3.18 ± 0.089 | 2.96 ± 0.082 | 3.07 ± 0.052
11 | ARNVQVHQEPYVFNARP [RPS0A] | 3.01 ± 0.098 | 3.25 ± 0.063 | 2.99 ± 0.051 | 3.06 ± 0.063
12 | ELEQLSSEALEAARICA [RPL10] | 1.21 ± 0.071 | 1.35 ± 0.059 | 1.33 ± 0.14 | 1.12 ± 0.06
13 | YINDVHLLYPPHIIAVA [SSN8] | 1.74 ± 0.057 | 1.46 ± 0.041 | 2.15 ± 0.072 | 1.67 ± 0.065
14 | FIERNFTPQEIEYCSAQ [FAS2] |  | 3.54 ± 0.26 | 2.72 ± 0.26 | 2.73 ± 0.22
15 | LWDSKELEQLVEFNRKV [RPN3] | 2.97 ± 0.1 | 2.62 ± 0.093 | 3.2 ± 0.068 | 2.81 ± 0.084
16 | ERPPYILNSYGVLKPDI [SIR2] | 2.83 ± 0.078 | 3.12 ± 0.093 | 3.15 ± 0.053 | 3.15 ± 0.061
17 | LPKVRYNVEKVKRLMDF [NSL1] | 1.8 ± 0.07 | 2.38 ± 0.065 | 1.96 ± 0.13 | 2.15 ± 0.081
18 | PWCVKPEYLAMYGLTME [ITC1] | 2.27 ± 0.065 | 3.03 ± 0.071 | 2.79 ± 0.081 | 2.07 ± 0.073
19 | ELDQFWQEYSSVFKGGM [SRP14] | 2.68 ± 0.073 | 2.66 ± 0.079 | 2.86 ± 0.098 | 3.13 ± 0.081

Row | Sequence | protein stability index (doa10∆) | protein stability index (pdr5∆) | protein stability index (san1∆) | protein stability index (ubr1∆)
20 | NFLQESYEVEHVIQIPL [TAF14] | 2.49 ± 0.094 | 2.94 ± 0.092 | 2.55 ± 0.067 | 2.81 ± 0.082
21 | MIISGSRDKTIKVWTIK [ASC1] | 2.48 ± 0.084 | 2.71 ± 0.092 | 2.49 ± 0.11 | 2.95 ± 0.087
22 | IDLLLLGQERATDLAGP [PRP8] | 2.47 ± 0.047 | 2.58 ± 0.083 | 2.34 ± 0.087 | 2.29 ± 0.05
23 | LRDHALSLTAFTKNEEK [ITC1] | 1.42 ± 0.042 | 1.76 ± 0.047 | 1.38 ± 0.076 | 1.86 ± 0.046
24 | RLKEKGSRVLIFSQMSR [ISW2] | 1.67 ± 0.056 | 2.19 ± 0.066 | 1.53 ± 0.11 | 2.06 ± 0.057
25 | SEVLVDTLDSKSNGSSD [ISW2] | 3.07 ± 0.07 | 3.15 ± 0.066 | 3.11 ± 0.054 | 3.04 ± 0.058
26 | MQVYLVPIERVAQLKPF [RPC37] | 1.9 ± 0.079 | 1.77 ± 0.065 | 1.87 ± 0.063 | 2.54 ± 0.058
27 | TATAATNGNNAGGGSNK [MED6] | 3.23 ± 0.12 | 3.41 ± 0.085 | 3.27 ± 0.11 | 3.46 ± 0.1
28 | YLHNVELGEKKNEKLKF [ISW2] | 2.84 ± 0.083 | 2.68 ± 0.094 | 2.89 ± 0.096 | 2.87 ± 0.1
29 | NASQMGNTGSGGYDNAW [RPB3] | 3.36 ± 0.28 | 3.31 ± 0.17 | 3.52 ± 0.2 | 2.5 ± 0.15
30 | KAKYNTPKYRLVVRFTN [RPL5] | 1.39 ± 0.049 | 1.53 ± 0.073 | 1.24 ± 0.21 | 1.12 ± 0.068
31 | KKGEYARFKSKDERDTW [SMC3] |  | 3.23 ± 0.17 | 2.69 ± 0.098 | 3.32 ± 0.17
32 | DDYSNLKREERQGLIHQ [SMC3] | 2.21 ± 0.2 | 2.6 ± 0.1 | 1.96 ± 0.21 | 2.7 ± 0.11
33 | RNLNNLKQENAYLLIRR [RPB8] | 3.14 ± 0.072 | 3.16 ± 0.084 | 3.15 ± 0.071 | 3 ± 0.054
34 | PVQSKFGRKKRKGGPAT [RPT2] | 3.47 ± 0.23 | 3.11 ± 0.14 | 2.99 ± 0.095 | 3.22 ± 0.16
35 | MSGRGKGGKGLGKGGAK [HHF1] | 3.69 ± 0.29 | 3.56 ± 0.27 | 3.61 ± 0.097 | 3.58 ± 0.074
36 | LTKYIRSKNLIFNGETL [GRR1] | 2.52 ± 0.086 | 2.43 ± 0.06 | 1.92 ± 0.078 | 1.91 ± 0.06
37 | TLVNKSTGLKSASDALK [RPS1A] | 2.94 ± 0.11 | 3.1 ± 0.11 | 3.42 ± 0.092 | 3.23 ± 0.074
38 | RQQQENSSKIITLDLSN [SMC1] | 3.22 ± 0.11 | 3.35 ± 0.066 | 3.18 ± 0.066 | 3.18 ± 0.061
